One test concerns the target HLA-A*23:01. The test can be described thus: IEDB peptide-MHC binding, purified MHC/competitive/fluorescence; filed as Kd, often an IC50 or EC50 that approximates it; ≥ and ≤ were set here for values at or beyond the usual limits of such assays.
Another test concerns the target HLA-A*26:01. The test is described as above.
A further test deals with HLA-B*57:01. The test is described as above.
The target of a further test is HLA-A*68:02. The test is described as above.
Test [1] deals with HLA-B*46:01. Described as above.
Another test deals with HLA-A*02:12. The description is as above.
In a further test the target is HLA-A*02:11. The description is as above.
A further test has as its target HLA-B*51:01. Described as above.
A further test addresses HLA-B*15:17. The test is described as above.
A further test deals with HLA-A*02:19. Described as above.
Test [2] has as its target HLA-B*15:01. The test is described as above.
For another test, the target named is HLA-B*18:01. Described as above.
The next test concerns the target HLA-A*24:03. The test is described as above.
For test [3], the target named is HLA-A*02:01. The description is as above.
A further test addresses HLA-B*27:03. Described as above.
The next test deals with HLA-A*02:03. Described as above.
Another test deals with HLA-B*39:01. The description is as above.
The target in test [4] is HLA-A*03:01. The description is as above.
The next test deals with HLA-A*69:01. Described as above.
The next test deals with HLA-A*29:02. The description is as above.
A further test addresses HLA-A*31:01. Described as above. The conditions noted are these: source organism: Entamoeba histolytica HM-1:IMSS.
In a further test the target is HLA-A*02:16. The description is as above.
The target in a further test is HLA-A*11:01. The test can be described thus: IEDB peptide-MHC binding, purified MHC/direct/fluorescence; filed as Kd, often an IC50 or EC50 that approximates it; ≥ and ≤ were set here for values at or beyond the usual limits of such assays. The conditions noted are these: source organism: Escherichia coli O157:H7.
Test [5] has as its target HLA-B*46:01. The test is described as above. The settings on record: source organism: Escherichia coli O157:H7.
The next test addresses HLA-B*58:01. The test is described as above. The settings on record: source organism: Escherichia coli O157:H7.
Test [6] deals with HLA-B*15:01. The test is described as above. The settings on record: source organism: Escherichia coli O157:H7.
The target in a further test is HLA-A*24:02. The description is as above. The settings on record: source organism: Escherichia coli O157:H7.
Test [7] has as its target HLA-A*02:01. The description is as above. The settings on record: source organism: Escherichia coli O157:H7.
For test [8], the target named is HLA-A*03:01. The description is as above. The settings on record: source organism: Escherichia coli O157:H7.
The target of another test is HLA-B*40:01. The description is as above. The settings on record: source organism: Escherichia coli O157:H7.
The target of the next test is HLA-B*07:02. The test is described as above. The conditions noted are these: source organism: Escherichia coli O157:H7.
For a further test, the target named is HLA-B*27:05. The description is as above. The conditions noted are these: source organism: Escherichia coli O157:H7.
In the next test the target is HLA-A*01:01. Described as above. The conditions noted are these: source organism: Escherichia coli O157:H7.
In another test the target is HLA-B*44:02. Described as above. The settings on record: source organism: Escherichia coli O157:H7.
Where [9] appears, read: source organism: Giardia lamblia ATCC 50803.
The mark [10] stands for this setting: source organism: Entamoeba histolytica HM-1:IMSS.
The mark [11] stands for this setting: source organism: Listeria welshimeri serovar 6b str. SLCC5334.
Where [12] appears, read: source organism: Bacillus cereus G9241.
[13] abbreviates: source organism: Influenza A virus (A/red knot/Delaware/2561/1987(H10N5)).

For orientation: Kd means the free concentration of one partner at which half of the binding sites on the other are occupied at equilibrium, for simple one-to-one binding. LLDDGWAGE: the dissociation constant (Kd) in the test with HLA-A*23:01 (setting [9]) was at least 20 µM; in the test with HLA-A*26:01 (setting [9]), at least 20 µM; with HLA-B*57:01 (setting [9]), at least 20 µM; with HLA-A*68:02 (setting [9]), at least 20 µM; in the test with HLA-B*46:01 [1] (setting [9]), at least 20 µM; in the test with HLA-A*02:12 (setting [9]), 6 µM. Besides, the Kd with HLA-A*02:11 (setting [9]), with HLA-B*51:01 (setting [9]), with HLA-B*15:17 (setting [9]), in the test with HLA-A*02:19 (setting [9]), with HLA-B*15:01 [2] (setting [9]) and with HLA-B*18:01 (setting [9]) was at least 20 µM each time. In addition, the Kd in the test with HLA-A*24:03 (setting [9]), in the test with HLA-A*02:01 [3] (setting [9]), with HLA-B*27:03 (setting [9]), with HLA-A*02:03 (setting [9]), with HLA-B*39:01 (setting [9]) and in the test with HLA-A*03:01 [4] (setting [9]) was at least 20 µM each time. In addition, the Kd in the test with HLA-A*69:01 (setting [9]) and with HLA-A*29:02 (setting [9]) was at least 20 µM each time.
For RTFDRFFEE, the Kd was at least 20 µM with HLA-A*23:01 (setting [10]); at least 20 µM with HLA-A*26:01 (setting [10]); 0.318 µM with HLA-A*31:01; at least 20 µM in the test with HLA-B*57:01 (setting [10]); at least 20 µM with HLA-A*02:16 (setting [10]); at least 20 µM in the test with HLA-A*68:02 (setting [10]). The Kd with HLA-B*46:01 [1] (setting [10]), with HLA-A*02:12 (setting [10]), in the test with HLA-A*02:11 (setting [10]), with HLA-B*51:01 (setting [10]), with HLA-A*02:19 (setting [10]) and with HLA-B*15:01 [2] (setting [10]) was at least 20 µM in each case. The Kd with HLA-B*18:01 (setting [10]), with HLA-A*24:03 (setting [10]), with HLA-A*02:01 [3] (setting [10]), with HLA-B*27:03 (setting [10]), with HLA-A*02:03 (setting [10]) and in the test with HLA-B*39:01 (setting [10]) was at least 20 µM each time. Also, the Kd with HLA-A*03:01 [4] (setting [10]), with HLA-A*69:01 (setting [10]) and with HLA-A*29:02 (setting [10]) was at least 20 µM in each case.
Regarding ELYENKPDV, the Kd in the test with HLA-A*23:01 (setting [11]), with HLA-A*26:01 (setting [11]), with HLA-B*57:01 (setting [11]), with HLA-B*46:01 [1] (setting [11]), in the test with HLA-A*02:12 (setting [11]) and with HLA-B*51:01 (setting [11]) was at least 20 µM in each case. Further, the Kd in the test with HLA-A*02:19 (setting [11]) was 0.303 µM; in the test with HLA-B*15:01 [2] (setting [11]), at least 20 µM; with HLA-B*18:01 (setting [11]), at least 20 µM; with HLA-A*24:03 (setting [11]) it was at least 20 µM; in the test with HLA-A*02:01 [3] (setting [11]) it was 0.515 µM; with HLA-B*27:03 (setting [11]), at least 20 µM. In addition, the dissociation constant (Kd) with HLA-B*39:01 (setting [11]), with HLA-A*03:01 [4] (setting [11]) and with HLA-A*29:02 (setting [11]) was at least 20 µM throughout.
DEEAINLFH: the Kd with HLA-A*23:01 (setting [12]), in the test with HLA-A*26:01 (setting [12]), in the test with HLA-B*57:01 (setting [12]), with HLA-A*02:16 (setting [12]), in the test with HLA-A*68:02 (setting [12]) and in the test with HLA-B*46:01 [1] (setting [12]) was at least 20 µM each time. Further, the Kd in the test with HLA-A*02:12 (setting [12]), with HLA-A*02:11 (setting [12]), in the test with HLA-B*51:01 (setting [12]), in the test with HLA-B*15:17 (setting [12]), with HLA-A*02:19 (setting [12]) and in the test with HLA-B*15:01 [2] (setting [12]) was at least 20 µM each time. The dissociation constant Kd with HLA-B*18:01 (setting [12]) was 0.692 µM; with HLA-A*24:03 (setting [12]), at least 20 µM; with HLA-A*02:01 [3] (setting [12]), at least 20 µM; with HLA-B*27:03 (setting [12]), at least 20 µM; with HLA-A*02:03 (setting [12]) it was at least 20 µM; with HLA-B*39:01 (setting [12]) it was at least 20 µM. For the same sequence, the Kd with HLA-A*03:01 [4] (setting [12]), with HLA-A*69:01 (setting [12]) and with HLA-A*29:02 (setting [12]) was at least 20 µM in each case.
As for PLKVKDIPF, the Kd was at least 20 µM in the test with HLA-A*11:01; at least 20 µM with HLA-B*46:01 [5]; at least 20 µM with HLA-B*58:01; 0.196 µM with HLA-B*15:01 [6]; at least 20 µM with HLA-A*24:02; at least 20 µM with HLA-A*02:01 [7]. Further, the Kd in the test with HLA-A*03:01 [8], in the test with HLA-B*40:01, with HLA-B*07:02, with HLA-B*27:05, in the test with HLA-A*01:01 and with HLA-B*44:02 was at least 20 µM each time.
For the sequence VMTDGPANK, the Kd in the test with HLA-A*23:01 (setting [13]) is at least 20 µM; with HLA-A*26:01 (setting [13]), at least 20 µM; with HLA-B*57:01 (setting [13]), at least 20 µM; with HLA-B*46:01 [1] (setting [13]), at least 20 µM; with HLA-A*02:12 (setting [13]), at least 20 µM; in the test with HLA-A*02:11 (setting [13]), 0.199 µM. Besides, the Kd with HLA-B*51:01 (setting [13]), with HLA-B*15:17 (setting [13]), in the test with HLA-A*02:19 (setting [13]), with HLA-B*15:01 [2] (setting [13]), with HLA-B*18:01 (setting [13]) and with HLA-A*24:03 (setting [13]) was at least 20 µM in each case. The equilibrium dissociation constant (Kd) with HLA-A*02:01 [3] (setting [13]), with HLA-B*27:03 (setting [13]), in the test with HLA-A*02:03 (setting [13]), with HLA-B*39:01 (setting [13]) and with HLA-A*29:02 (setting [13]) was at least 20 µM in each case.
